From patent US6300088A, “Method of detecting prostate specific antigen” (Duke University, priority 1998, dated 2001)
No end group written: not given here.

Experiments:
[1] = mouse, in vivo, iv
Description: (§1) Plasma Elimination Studies--This procedure has been described in detail elsewhere. […] In brief, approximately 1.0 μg of radioiodinated protein or peptide was injected into the lateral tail vein of CD-1 mice. Blood samples of 25 μl were collected at timed intervals via retroorbital puncture. The initial time point, taken 5-10 seconds after injection, was considered to represent 100% radioactivity in circulation. Each preparation was studied at least in triplicate.

[2] = Plasma elimination studies in CD-1 mice (radioiodinated protein or peptide injected into the lateral tail vein)
Description: as §1

[3] = Tissue distribution of radioactivity in organs after the plasma elimination experiments (γ-counter); type: in vivo; settings: mouse, after plasma elimination experiment; FIG. 5
Description: Each preparation was studied at least in triplicate.
Following the plasma elimination experiments the organs of the test mice were examined for radioactivity using a γ-counter.

## Ala-Pro-Leu-Ile-Leu-Ser-Arg (APLILSR; not fully specified; printed as Ala-Pro-Leu-Ile-Leu-Ser-Arg) [activation peptide]
[1]
  effect of excess unlabelled activation peptide on clearance rate / half-life: not significantly affected
  plasma elimination half-life of the peptide: less than 2 minutes

## ^125 I-α1 -ACT.cndot.PSA complexes: complex of prostate specific antigen with the protease inhibitor α1-antichymotrypsin
[2]; i.v. lateral tail vein, labelled complex injected alone
  half-life of removal from the mouse circulation: approximately 20 minutes
[2]; i.v., coinjected with a large excess of unlabeled α1-ACT·PSA complexes
  half life in mouse circulation on coinjection with excess unlabeled complex: several hours
[2]; mouse, i.v., FIG. 3
  half life of complex compared to native α1-ACT: significantly reduced

B1: ^125 I-α1 -ACT: α1-antichymotrypsin, purified as previously described (Salvesen et al.) (protein, UniProt P01011 24-423, looked up)
Alpha-1-antichymotrypsin: HPNSPLDEENLTQENQDRGTHVDLGLASANVDFAFSLYKQLVLKAPDKNVIFSPLSISTALAFLSLGAHNTTLTEILKGLKFNLTETSEAEIHQSFQHLLRTLNQSSDELQLSMGNAMFVKEQLSLLDRFTEDAKRLYGSEAFATDFQDSAAAKKLINDYVKNGTRGKITDLIKDLDSQTMMVLVNYIFFKAKWEMPFDPQDTHQSRFYLSKKKWVMVPMMSLHHLTIPYFRDEELSCTVVELKYTGNASALFILPDQDKMEEVEAMLLPETLKRWRDSLEFREIGELYLPKFSISRDYNLNDILLQLGIEEAFTSKADLSGITGARNLAVSQVVHKAVLDVFEEGTEASAATAVKITLLSALVETRTIVRFNRPFLMIIVPTDTQNIFFMSKVTNPKQA
modifications: 125I label
[3]
  organs with predominant radioactivity (tissue distribution): bladder and kidney
[2]; i.v. lateral tail vein, injected alone, estimated
  half life in mouse circulation: several hours
